# Data as given in the Immune Epitope Database (IEDB).
# How the values were obtained:
# HLA-B*45:06 = assay: IEDB peptide-MHC binding, purified MHC/competitive/fluorescence; filed as Kd, often an IC50 or EC50 that approximates it; ≥ and ≤ were set here for values at or beyond the usual limits of such assays
# HLA-B*15:42 = assay: as above
# HLA-B*83:01 = assay: as above
# HLA-B*27:20 = assay: as above
# HLA-B*15:17 = assay: as above; conditions: source organism: Rickettsia prowazekii str. Madrid E
# HLA-B*08:01 = assay: as above; conditions: source organism: Rickettsia prowazekii str. Madrid E
# HLA-A*30:01 = assay: as above; conditions: source organism: Rickettsia prowazekii str. Madrid E
# HLA-A*11:01 = assay: IEDB peptide-MHC binding, purified MHC/direct/fluorescence; filed as Kd, often an IC50 or EC50 that approximates it; ≥ and ≤ were set here for values at or beyond the usual limits of such assays
# HLA-C*15:02 = assay: as above
# HLA-B*15:09 = assay: as above; conditions: source organism: Rickettsia typhi str. Wilmington
# HLA-A*26:01 = assay: as above
# HLA-B*18:01 = assay: as above; conditions: source organism: Rickettsia prowazekii
# HLA-A*01:01 = assay: as above
# HLA-B*27:05 = assay: as above
# HLA-A*69:01 = assay: as above
# HLA-B*08:02 = assay: as above; conditions: source organism: Rickettsia typhi str. Wilmington
# HLA-B*08:03 = assay: as above; conditions: source organism: Rickettsia typhi str. Wilmington
# HLA-C*06:02 [1] = assay: as above
# HLA-B*15:01 = assay: as above
# HLA-A*02:01 [2] = assay: as above
# HLA-A*03:01 = assay: as above
# HLA-B*07:02 = assay: as above
# HLA-B*73:01 [3] = assay: as above
# HLA-B*48:01 = assay: as above
# HLA-B*58:01 = assay: as above
# HLA-B*57:01 = assay: as above; conditions: source organism: Rickettsia prowazekii
# HLA-A*68:02 = assay: as above; conditions: source organism: Rickettsia prowazekii
# HLA-A*31:01 = assay: as above
# HLA-B*39:01 = assay: IEDB peptide-MHC binding, purified MHC/competitive/fluorescence; filed as Kd, often an IC50 or EC50 that approximates it; ≥ and ≤ were set here for values at or beyond the usual limits of such assays; conditions: source organism: Salmonella enterica subsp. enterica serovar Paratyphi B str. SPB7
# HLA-B*40:01 [4] = assay: as above; conditions: source organism: Salmonella enterica subsp. enterica serovar Paratyphi B str. SPB7
# HLA-B*40:01 [5] = assay: IEDB peptide-MHC binding, purified MHC/direct/fluorescence; filed as Kd, often an IC50 or EC50 that approximates it; ≥ and ≤ were set here for values at or beyond the usual limits of such assays; conditions: source organism: Yersinia pestis Nepal516
# HLA-B*46:01 = assay: as above; conditions: source organism: Yersinia pestis Nepal516
# HLA-B*44:02 = assay: as above; conditions: source organism: Yersinia pestis Nepal516
# HLA-B*15:02 = assay: as above; conditions: source organism: Yersinia enterocolitica subsp. enterocolitica 8081
# HLA-A*02:19 = assay: as above; conditions: source organism: Yersinia enterocolitica subsp. enterocolitica 8081
# HLA-B*35:01 = assay: as above; conditions: source organism: Yersinia pestis
# HLA-B*73:01 [6] = assay: IEDB peptide-MHC binding, purified MHC/competitive/fluorescence; filed as Kd, often an IC50 or EC50 that approximates it; ≥ and ≤ were set here for values at or beyond the usual limits of such assays
# HLA-A*02:01 [7] = assay: IEDB peptide-MHC binding, purified MHC/competitive/radioactivity; ≥ and ≤ were set here for values at or beyond the usual limits of such assays; conditions: source organism: Homo sapiens
# HLA-C*06:02 [8] = assay: IEDB peptide-MHC binding, purified MHC/competitive/fluorescence; filed as Kd, often an IC50 or EC50 that approximates it; ≥ and ≤ were set here for values at or beyond the usual limits of such assays; conditions: source organism: Escherichia coli HS
# HLA-C*14:02 = assay: as above; conditions: source organism: Escherichia coli HS
# HLA-C*08:02 = assay: IEDB peptide-MHC binding, purified MHC/direct/fluorescence; filed as Kd, often an IC50 or EC50 that approximates it; ≥ and ≤ were set here for values at or beyond the usual limits of such assays; conditions: source organism: Escherichia coli HS
# HLA-B*51:01 = assay: as above; conditions: source organism: Escherichia coli O157:H7
# [9] = source organism: human gammaherpesvirus 4
# [10] = source organism: Rickettsia prowazekii
# [11] = source organism: Rickettsia prowazekii str. Madrid E
# [12] = source organism: Brucella abortus 2308
# [13] = source organism: Salmonella enterica subsp. enterica serovar Paratyphi B str. SPB7
# [14] = source organism: Yersinia pestis Nepal516
# [15] = source organism: Yersinia pestis
# [16] = source organism: Human herpesvirus 4 strain B95-8
# [17] = source organism: Escherichia coli HS
sequence,measurement,setting,value
RRLHRLLLM,Kd,HLA-B*45:06; [9],≥ 5 µM
same,Kd,HLA-B*15:42; [9],≥ 5 µM
same,Kd,HLA-B*83:01; [9],≥ 5 µM
same,Kd,HLA-B*27:20; [9],≤ 0.0001 µM
RRNRKALWL,Kd,HLA-B*15:17,≥ 20 µM
same,Kd,HLA-B*08:01,3 µM
same,Kd,HLA-A*30:01,≥ 20 µM
same,Kd,HLA-A*11:01; [10],≥ 20 µM
same,Kd,HLA-C*15:02; [11],≥ 20 µM
same,Kd,HLA-B*15:09,≥ 20 µM
same,Kd,HLA-A*26:01; source organism: Rickettsia typhi str. Wilmington,≥ 20 µM
same,Kd,HLA-B*18:01,≥ 20 µM
same,Kd,HLA-A*01:01; [10],≥ 20 µM
same,Kd,HLA-B*27:05; [10],0.0465 µM
same,Kd,HLA-A*69:01; [10],≥ 20 µM
same,Kd,HLA-B*08:02,≥ 20 µM
same,Kd,HLA-B*08:03,≥ 20 µM
same,Kd,HLA-C*06:02 [1]; [11],0.031 µM
same,Kd,HLA-B*15:01; [10],≥ 20 µM
same,Kd,HLA-A*02:01 [2]; [10],≥ 20 µM
same,Kd,HLA-A*03:01; [10],≥ 20 µM
same,Kd,HLA-B*07:02; [10],6.89 µM
same,Kd,HLA-B*73:01 [3]; [10],3.37 µM
same,Kd,HLA-B*48:01; [10],≥ 20 µM
same,Kd,HLA-B*58:01; [10],≥ 20 µM
same,Kd,HLA-B*57:01,≥ 20 µM
same,Kd,HLA-A*68:02,≥ 20 µM
same,Kd,HLA-A*31:01; [10],≥ 20 µM
YRSGVPVEK,Kd,HLA-B*27:05; [12],0.0619 µM
same,Kd,HLA-B*73:01 [3]; source organism: Brucella suis 1330,≥ 20 µM
same,Kd,HLA-B*48:01; [12],≥ 20 µM
YESSHWLVV,Kd,HLA-B*45:06; [13],≥ 5 µM
same,Kd,HLA-B*39:01,0.0372 µM
same,Kd,HLA-B*40:01 [4],0.005 µM
same,Kd,HLA-B*15:42; [13],≥ 5 µM
same,Kd,HLA-B*83:01; [13],≥ 5 µM
same,Kd,HLA-B*27:20; [13],0.113 µM
WLWVSSSDM,Kd,HLA-A*11:01; [14],≥ 20 µM
same,Kd,HLA-A*26:01; [14],≥ 20 µM
same,Kd,HLA-A*01:01; [14],≥ 20 µM
same,Kd,HLA-B*27:05; [15],≥ 5 µM
same,Kd,HLA-B*40:01 [5],≥ 20 µM
same,Kd,HLA-A*69:01; [15],0.114 µM
same,Kd,HLA-B*46:01,≥ 20 µM
same,Kd,HLA-B*15:01; [15],1.37 µM
same,Kd,HLA-A*02:01 [2]; [15],1 µM
same,Kd,HLA-A*03:01; [14],≥ 20 µM
same,Kd,HLA-B*07:02; [15],≥ 5 µM
same,Kd,HLA-B*44:02,≥ 20 µM
same,Kd,HLA-B*58:01; [14],≥ 20 µM
same,Kd,HLA-B*15:02,0.003 µM
same,Kd,HLA-A*02:19,0.012 µM
same,Kd,HLA-A*31:01; [14],≥ 20 µM
same,Kd,HLA-B*35:01,0.0224 µM
RRRRRRAAL,Kd,HLA-B*45:06; [16],≥ 5 µM
same,Kd,HLA-B*15:42; [16],≥ 5 µM
same,Kd,HLA-B*83:01; [16],≥ 5 µM
same,Kd,HLA-B*27:20; [16],≤ 0.001 µM
KEWCGNLIV,Kd,HLA-B*73:01 [6]; source organism: Entamoeba histolytica,≥ 20 µM
TRYYWDIHL,Kd,HLA-C*06:02 [1]; source organism: Escherichia coli O157:H7 str. EDL933,0.051 µM
ILTVILGVL,IC50,HLA-A*02:01 [7],0.381 µM
YRGGGQQHV,Kd,HLA-B*73:01 [6]; source organism: Brucella abortus S19,3 µM
YLREHIRAM,Kd,HLA-B*45:06; [17],≥ 5 µM
same,Kd,HLA-B*15:42; [17],≥ 5 µM
same,Kd,HLA-B*83:01; [17],≥ 5 µM
same,Kd,HLA-C*06:02 [8],0.0684 µM
same,Kd,HLA-C*14:02,0.0018 µM
same,Kd,HLA-C*15:02; [17],≥ 20 µM
same,Kd,HLA-C*08:02,≥ 20 µM
same,Kd,HLA-B*51:01,≥ 20 µM
same,Kd,HLA-B*07:02; source organism: Escherichia coli O157:H7,0.006 µM
